Measured values from patent US20210032299A1 (Eli Lilly, published 2021).
Starred links: 1 amine or outer side, 2 acyl side, 3 side chain; linkers in the order of their positions; H or OH if unused. Non-standard residues stand in square brackets, D forms with d. Groups on a side chain read outwards from the residue. No end group written: not given here. *: point of attachment. C20 diacid = O=C(O)CCCCCCCCCCCCCCCCCCC(=O)*; C18 diacid = O=C(O)CCCCCCCCCCCCCCCCC(=O)*; αMePhe(2-F) = C[C@](N)(Cc1ccccc1F)C(=O)O; γGlu = O=C(O)[C@H](CCC(=O)[*:2])N[*:1]; αMeL = CC(C)C[C@](C)(N)C(=O)O; AEEA = NCCOCCOCC(=O)O; Aib = CC(C)(N)C(=O)O

What was measured:
Experiment in all cases: cell-based or functional assay
[1] = molecular target: T1, human glucose-dependent insulinotropic peptide receptor (human, UniProt P48546 22-466)
T1 sequence (looked up): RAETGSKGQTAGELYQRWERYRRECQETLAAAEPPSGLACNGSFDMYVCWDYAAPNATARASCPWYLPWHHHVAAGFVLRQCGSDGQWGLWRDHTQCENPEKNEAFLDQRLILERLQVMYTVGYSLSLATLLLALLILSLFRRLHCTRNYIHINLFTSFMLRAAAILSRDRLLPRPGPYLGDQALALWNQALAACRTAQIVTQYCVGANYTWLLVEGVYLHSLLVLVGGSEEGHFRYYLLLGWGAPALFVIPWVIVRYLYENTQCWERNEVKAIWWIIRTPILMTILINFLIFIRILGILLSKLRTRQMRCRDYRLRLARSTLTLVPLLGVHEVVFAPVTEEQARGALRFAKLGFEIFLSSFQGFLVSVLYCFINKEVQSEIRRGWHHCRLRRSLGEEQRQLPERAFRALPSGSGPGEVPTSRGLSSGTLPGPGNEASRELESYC

human GLP-1 receptor = human GLP-1 receptor (human, UniProt P43220 24-463)
human glucagon receptor = human glucagon receptor (human, UniProt P47871 26-477)
Chain of human glucagon receptor (P47871 26-477): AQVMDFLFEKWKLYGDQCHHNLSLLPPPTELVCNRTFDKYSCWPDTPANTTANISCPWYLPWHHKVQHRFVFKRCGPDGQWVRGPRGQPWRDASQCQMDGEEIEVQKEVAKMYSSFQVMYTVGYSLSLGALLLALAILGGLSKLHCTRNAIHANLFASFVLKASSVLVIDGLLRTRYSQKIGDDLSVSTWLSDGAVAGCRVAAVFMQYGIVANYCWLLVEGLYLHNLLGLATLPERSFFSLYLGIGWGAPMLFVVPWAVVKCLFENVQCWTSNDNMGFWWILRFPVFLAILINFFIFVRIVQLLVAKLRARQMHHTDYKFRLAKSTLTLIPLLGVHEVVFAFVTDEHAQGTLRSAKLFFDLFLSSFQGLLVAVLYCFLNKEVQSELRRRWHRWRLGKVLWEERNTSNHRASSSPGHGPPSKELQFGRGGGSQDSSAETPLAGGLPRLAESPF

B1: Example 31 (peptide)
peptide: Y[Aib]EGTFISDYSILLDKK([AEEA-AEEA-γGlu-C18 diacid])HQ[Aib]DFVNYLLAAGPSSGAPPPS-NH2
modifications: N-terminus assumed
SMILES: CC[C@H](C)[C@H](NC(=O)[C@H](CO)NC(=O)[C@H](Cc1ccc(O)cc1)NC(=O)[C@H](CC(=O)O)NC(=O)[C@H](CO)NC(=O)[C@@H](NC(=O)[C@H](Cc1ccccc1)NC(=O)[C@@H](NC(=O)CNC(=O)[C@H](CCC(=O)O)NC(=O)C(C)(C)NC(=O)[C@@H](N)Cc1ccc(O)cc1)[C@@H](C)O)[C@@H](C)CC)C(=O)N[C@@H](CC(C)C)C(=O)N[C@@H](CC(C)C)C(=O)N[C@@H](CC(=O)O)C(=O)N[C@@H](CCCCN)C(=O)N[C@@H](CCCCNC(=O)COCCOCCNC(=O)COCCOCCNC(=O)CC[C@H](NC(=O)CCCCCCCCCCCCCCCCC(=O)O)C(=O)O)C(=O)N[C@@H](Cc1c[nH]cn1)C(=O)N[C@@H](CCC(N)=O)C(=O)NC(C)(C)C(=O)N[C@@H](CC(=O)O)C(=O)N[C@@H](Cc1ccccc1)C(=O)N[C@H](C(=O)N[C@@H](CC(N)=O)C(=O)N[C@@H](Cc1ccc(O)cc1)C(=O)N[C@@H](CC(C)C)C(=O)N[C@@H](CC(C)C)C(=O)N[C@@H](C)C(=O)N[C@@H](C)C(=O)NCC(=O)N1CCC[C@H]1C(=O)N[C@@H](CO)C(=O)N[C@@H](CO)C(=O)NCC(=O)N[C@@H](C)C(=O)N1CCC[C@H]1C(=O)N1CCC[C@H]1C(=O)N1CCC[C@H]1C(=O)N[C@@H](CO)C(N)=O)C(C)C
hGIPR cAMP Rel EC50 [1]: 0.0148 nM
hGLP1R cAMP Rel EC50 (human GLP-1 receptor): > 5000 nM
hGcgR cAMP Rel EC50 (human glucagon receptor): 1750 nM

B2: Example 33 (peptide)
peptide: Ac-[dY]AEGT[αMePhe(2-F)]ISDYSIALDKK([AEEA-AEEA-γGlu-C20 diacid])HQ[Aib]EFVNYLLEGGPSSGAPPPS-NH2
SMILES: CC[C@H](C)[C@H](NC(=O)[C@H](CO)NC(=O)[C@H](Cc1ccc(O)cc1)NC(=O)[C@H](CC(=O)O)NC(=O)[C@H](CO)NC(=O)[C@@H](NC(=O)[C@](C)(Cc1ccccc1F)NC(=O)[C@@H](NC(=O)CNC(=O)[C@H](CCC(=O)O)NC(=O)[C@H](C)NC(=O)[C@@H](Cc1ccc(O)cc1)NC(C)=O)[C@@H](C)O)[C@@H](C)CC)C(=O)N[C@@H](C)C(=O)N[C@@H](CC(C)C)C(=O)N[C@@H](CC(=O)O)C(=O)N[C@@H](CCCCN)C(=O)N[C@@H](CCCCNC(=O)COCCOCCNC(=O)COCCOCCNC(=O)CC[C@H](NC(=O)CCCCCCCCCCCCCCCCCCC(=O)O)C(=O)O)C(=O)N[C@@H](Cc1c[nH]cn1)C(=O)N[C@@H](CCC(N)=O)C(=O)NC(C)(C)C(=O)N[C@@H](CCC(=O)O)C(=O)N[C@@H](Cc1ccccc1)C(=O)N[C@H](C(=O)N[C@@H](CC(N)=O)C(=O)N[C@@H](Cc1ccc(O)cc1)C(=O)N[C@@H](CC(C)C)C(=O)N[C@@H](CC(C)C)C(=O)N[C@@H](CCC(=O)O)C(=O)NCC(=O)NCC(=O)N1CCC[C@H]1C(=O)N[C@@H](CO)C(=O)N[C@@H](CO)C(=O)NCC(=O)N[C@@H](C)C(=O)N1CCC[C@H]1C(=O)N1CCC[C@H]1C(=O)N1CCC[C@H]1C(=O)N[C@@H](CO)C(N)=O)C(C)C
hGIPR cAMP Rel EC50 [1]: 0.0551 nM
hGLP1R cAMP Rel EC50 (human GLP-1 receptor): > 5000 nM
hGcgR cAMP Rel EC50 (human glucagon receptor): > 5000 nM

B3: Example 32 (peptide)
peptide: Y[dA]EGTLISDYSILLDKK([AEEA-AEEA-γGlu-C18 diacid])AQ[Aib]DFVNWLLAQGPSSGAPPPS-NH2
modifications: N-terminus assumed
SMILES: CC[C@H](C)[C@H](NC(=O)[C@H](CO)NC(=O)[C@H](Cc1ccc(O)cc1)NC(=O)[C@H](CC(=O)O)NC(=O)[C@H](CO)NC(=O)[C@@H](NC(=O)[C@H](CC(C)C)NC(=O)[C@@H](NC(=O)CNC(=O)[C@H](CCC(=O)O)NC(=O)[C@@H](C)NC(=O)[C@@H](N)Cc1ccc(O)cc1)[C@@H](C)O)[C@@H](C)CC)C(=O)N[C@@H](CC(C)C)C(=O)N[C@@H](CC(C)C)C(=O)N[C@@H](CC(=O)O)C(=O)N[C@@H](CCCCN)C(=O)N[C@@H](CCCCNC(=O)COCCOCCNC(=O)COCCOCCNC(=O)CC[C@H](NC(=O)CCCCCCCCCCCCCCCCC(=O)O)C(=O)O)C(=O)N[C@@H](C)C(=O)N[C@@H](CCC(N)=O)C(=O)NC(C)(C)C(=O)N[C@@H](CC(=O)O)C(=O)N[C@@H](Cc1ccccc1)C(=O)N[C@H](C(=O)N[C@@H](CC(N)=O)C(=O)N[C@@H](Cc1c[nH]c2ccccc12)C(=O)N[C@@H](CC(C)C)C(=O)N[C@@H](CC(C)C)C(=O)N[C@@H](C)C(=O)N[C@@H](CCC(N)=O)C(=O)NCC(=O)N1CCC[C@H]1C(=O)N[C@@H](CO)C(=O)N[C@@H](CO)C(=O)NCC(=O)N[C@@H](C)C(=O)N1CCC[C@H]1C(=O)N1CCC[C@H]1C(=O)N1CCC[C@H]1C(=O)N[C@@H](CO)C(N)=O)C(C)C
hGIPR cAMP Rel EC50 [1]: 0.00469 nM
hGLP1R cAMP Rel EC50 (human GLP-1 receptor): > 5000 nM
hGcgR cAMP Rel EC50 (human glucagon receptor): > 5000 nM

B4: Example 34 (peptide)
peptide: Y[Aib]EGT[αMePhe(2-F)]ISDYSIALDKK([AEEA-AEEA-γGlu-C20 diacid])HQ[Aib]EFVNYLLATGPSSGAPPPS-NH2
modifications: N-terminus assumed
SMILES: CC[C@H](C)[C@H](NC(=O)[C@H](CO)NC(=O)[C@H](Cc1ccc(O)cc1)NC(=O)[C@H](CC(=O)O)NC(=O)[C@H](CO)NC(=O)[C@@H](NC(=O)[C@](C)(Cc1ccccc1F)NC(=O)[C@@H](NC(=O)CNC(=O)[C@H](CCC(=O)O)NC(=O)C(C)(C)NC(=O)[C@@H](N)Cc1ccc(O)cc1)[C@@H](C)O)[C@@H](C)CC)C(=O)N[C@@H](C)C(=O)N[C@@H](CC(C)C)C(=O)N[C@@H](CC(=O)O)C(=O)N[C@@H](CCCCN)C(=O)N[C@@H](CCCCNC(=O)COCCOCCNC(=O)COCCOCCNC(=O)CC[C@H](NC(=O)CCCCCCCCCCCCCCCCCCC(=O)O)C(=O)O)C(=O)N[C@@H](Cc1c[nH]cn1)C(=O)N[C@@H](CCC(N)=O)C(=O)NC(C)(C)C(=O)N[C@@H](CCC(=O)O)C(=O)N[C@@H](Cc1ccccc1)C(=O)N[C@H](C(=O)N[C@@H](CC(N)=O)C(=O)N[C@@H](Cc1ccc(O)cc1)C(=O)N[C@@H](CC(C)C)C(=O)N[C@@H](CC(C)C)C(=O)N[C@@H](C)C(=O)N[C@H](C(=O)NCC(=O)N1CCC[C@H]1C(=O)N[C@@H](CO)C(=O)N[C@@H](CO)C(=O)NCC(=O)N[C@@H](C)C(=O)N1CCC[C@H]1C(=O)N1CCC[C@H]1C(=O)N1CCC[C@H]1C(=O)N[C@@H](CO)C(N)=O)[C@@H](C)O)C(C)C
hGIPR cAMP Rel EC50 [1]: 0.0177 nM
hGLP1R cAMP Rel EC50 (human GLP-1 receptor): 462 nM
hGcgR cAMP Rel EC50 (human glucagon receptor): 913 nM

B5: Example 36 (peptide)
peptide: Y[Aib]EGT[αMePhe(2-F)]ISDYSIALDKK([AEEA-AEEA-γGlu-C20 diacid])HQ[Aib]DFVEYLLETGPSSGAPPPS-NH2
modifications: N-terminus assumed
SMILES: CC[C@H](C)[C@H](NC(=O)[C@H](CO)NC(=O)[C@H](Cc1ccc(O)cc1)NC(=O)[C@H](CC(=O)O)NC(=O)[C@H](CO)NC(=O)[C@@H](NC(=O)[C@](C)(Cc1ccccc1F)NC(=O)[C@@H](NC(=O)CNC(=O)[C@H](CCC(=O)O)NC(=O)C(C)(C)NC(=O)[C@@H](N)Cc1ccc(O)cc1)[C@@H](C)O)[C@@H](C)CC)C(=O)N[C@@H](C)C(=O)N[C@@H](CC(C)C)C(=O)N[C@@H](CC(=O)O)C(=O)N[C@@H](CCCCN)C(=O)N[C@@H](CCCCNC(=O)COCCOCCNC(=O)COCCOCCNC(=O)CC[C@H](NC(=O)CCCCCCCCCCCCCCCCCCC(=O)O)C(=O)O)C(=O)N[C@@H](Cc1c[nH]cn1)C(=O)N[C@@H](CCC(N)=O)C(=O)NC(C)(C)C(=O)N[C@@H](CC(=O)O)C(=O)N[C@@H](Cc1ccccc1)C(=O)N[C@H](C(=O)N[C@@H](CCC(=O)O)C(=O)N[C@@H](Cc1ccc(O)cc1)C(=O)N[C@@H](CC(C)C)C(=O)N[C@@H](CC(C)C)C(=O)N[C@@H](CCC(=O)O)C(=O)N[C@H](C(=O)NCC(=O)N1CCC[C@H]1C(=O)N[C@@H](CO)C(=O)N[C@@H](CO)C(=O)NCC(=O)N[C@@H](C)C(=O)N1CCC[C@H]1C(=O)N1CCC[C@H]1C(=O)N1CCC[C@H]1C(=O)N[C@@H](CO)C(N)=O)[C@@H](C)O)C(C)C
hGIPR cAMP Rel EC50 [1]: 0.0543 nM
hGLP1R cAMP Rel EC50 (human GLP-1 receptor): 1080 nM
hGcgR cAMP Rel EC50 (human glucagon receptor): > 5000 nM

B6: Example 35 (peptide)
peptide: Y[Aib]EGT[αMeL]ISDYSIALDKK([AEEA-AEEA-γGlu-C20 diacid])HQ[Aib]EFVNYLLATGPSSGAPPPS-NH2
modifications: N-terminus assumed
SMILES: CC[C@H](C)[C@H](NC(=O)[C@H](CO)NC(=O)[C@H](Cc1ccc(O)cc1)NC(=O)[C@H](CC(=O)O)NC(=O)[C@H](CO)NC(=O)[C@@H](NC(=O)[C@](C)(CC(C)C)NC(=O)[C@@H](NC(=O)CNC(=O)[C@H](CCC(=O)O)NC(=O)C(C)(C)NC(=O)[C@@H](N)Cc1ccc(O)cc1)[C@@H](C)O)[C@@H](C)CC)C(=O)N[C@@H](C)C(=O)N[C@@H](CC(C)C)C(=O)N[C@@H](CC(=O)O)C(=O)N[C@@H](CCCCN)C(=O)N[C@@H](CCCCNC(=O)COCCOCCNC(=O)COCCOCCNC(=O)CC[C@H](NC(=O)CCCCCCCCCCCCCCCCCCC(=O)O)C(=O)O)C(=O)N[C@@H](Cc1c[nH]cn1)C(=O)N[C@@H](CCC(N)=O)C(=O)NC(C)(C)C(=O)N[C@@H](CCC(=O)O)C(=O)N[C@@H](Cc1ccccc1)C(=O)N[C@H](C(=O)N[C@@H](CC(N)=O)C(=O)N[C@@H](Cc1ccc(O)cc1)C(=O)N[C@@H](CC(C)C)C(=O)N[C@@H](CC(C)C)C(=O)N[C@@H](C)C(=O)N[C@H](C(=O)NCC(=O)N1CCC[C@H]1C(=O)N[C@@H](CO)C(=O)N[C@@H](CO)C(=O)NCC(=O)N[C@@H](C)C(=O)N1CCC[C@H]1C(=O)N1CCC[C@H]1C(=O)N1CCC[C@H]1C(=O)N[C@@H](CO)C(N)=O)[C@@H](C)O)C(C)C
hGIPR cAMP Rel EC50 [1]: 0.0125 nM
hGLP1R cAMP Rel EC50 (human GLP-1 receptor): > 5000 nM
hGcgR cAMP Rel EC50 (human glucagon receptor): > 5000 nM
